According to the supplement of paper PMC11246515:
± gives the standard deviation of the averaged measurements.

Experiment: total protein half-life in vivo (active degradation + dilution); higher = more stable protein
[1] = wild type E. coli NCM3722, growth: C-lim chemostat, doubling time 3 h
[2] = wild type E. coli NCM3722, growth: C-lim chemostat, doubling time 6 h
[3] = wild type E. coli NCM3722, growth: C-lim chemostat, doubling time 12 h
[4] = E. coli NCM3722 delta-clpP delta-lon delta-hslV, growth: N-lim chemostat, doubling time 6 h
[5] = E. coli NCM3722 delta-clpP, growth: N-lim chemostat, doubling time 6 h
[6] = E. coli NCM3722 delta-hslV, growth: N-lim chemostat, doubling time 6 h
[7] = E. coli NCM3722 delta-lon, growth: N-lim chemostat, doubling time 6 h
[8] = E. coli NCM3722 delta-smpB, growth: N-lim chemostat, doubling time 6 h
[9] = wild type E. coli NCM3722, growth: N-lim chemostat, doubling time 6 h
[10] = wild type E. coli NCM3722, growth: N-lim chemostat, doubling time 12 h
[11] = wild type E. coli NCM3722, growth: P-lim chemostat, doubling time 6 h
[12] = wild type E. coli NCM3722, growth: P-lim chemostat, doubling time 12 h

| Sequence | total protein half-life in vivo [1] | total protein half-life in vivo [2] | total protein half-life in vivo [3] | total protein half-life in vivo [4] | total protein half-life in vivo [5] | total protein half-life in vivo [6] | total protein half-life in vivo [7] | total protein half-life in vivo [8] | total protein half-life in vivo [9] | total protein half-life in vivo [10] | total protein half-life in vivo [11] | total protein half-life in vivo [12] |
| --- | --- | --- | --- | --- | --- | --- | --- | --- | --- | --- | --- | --- |
| MKSKVLALLIPALLAAGAAHAAEVYNKDGNKLDLYGKVDGLHYFSDNSAKDGDQSYARLGFKGETQINDQLTGYGQWEYNIQANNTESSKNQSWTRLAFAGLKFADYGSFDYGRNYGVMYDIEGWTDMLPEFGGDSYTNADNFMTGRANGVATYRNTDFFGLVNGLNFAVQYQGNNEGASNGQEGTNNGRDVRHENGDGWGLSTTYDLGMGFSAGAAYTSSDRTNDQVNHTAAGGDKADAWTAGLKYDANNIYLATMYSETRNMTPFGDSDYAVANKTQNFEVTAQYQFDFGLRPAVSFLMSKGRDLHAAGGADNPAGVDDKDLVKYADIGATYYFNKNMSTYVDYKINLLDEDDSFYAANGISTDDIVALGLVYQF | 3.6 h | 6.9 h | 11.9 h | – | – | – | – | – | – | – | – | – |
| MKSLFKVTLLATTMAVALHAPITFAAEAAKPATAADSKAAFKNDDQKSAYALGASLGRYMENSLKEQEKLGIKLDKDQLIAGVQDAFADKSKLSDQEIEQTLQAFEARVKSSAQAKMEKDAADNEAKGKEYREKFAKEKGVKTSSTGLVYQVVEAGKGEAPKDSDTVVVNYKGTLIDGKEFDNSYTRGEPLSFRLDGVIPGWTEGLKNIKKGGKIKLVIPPELAYGKAGVPGIPPNSTLVFDVELLDVKPAPKADAKPEADAKAADSAKK | 3.15 ± 0.053 h | 6.68 ± 0.15 h | 11.5 ± 0.64 h | 6.63 ± 0.44 h | 6.6 ± 0.35 h | 6.58 ± 0.14 h | 6.56 ± 0.067 h | 5.9 ± 0.28 h | 5.86 ± 0.3 h | 14 ± 2.2 h | 6.04 ± 0.87 h | 14.8 ± 1.6 h |
| MKSLRLMLCAMPLMLTGCSTMSSVNWSAANPWNWFGSSTKVSEQGVGELTASTPLQEQAIADALDGDYRLRSGMKTANGNVVRFFEVMKGDNVAMVINGDQGTISRIDVLDSDIPADTGVKIGTPFSDLYSKAFGNCQKADGDDNRAVECKAEGSQHISYQFSGEWRGPEGLMPSDDTLKNWKVSKIIWRR | 3.24 ± 0.74 h | 6.151 ± 0.0073 h | 14.8 ± 0.17 h | 5.96 ± 0.15 h | 6.484 ± 0.023 h | 7.579 ± 0.065 h | – | 6.4 ± 0.55 h | 6.63 ± 0.47 h | – | 6.68 ± 0.71 h | – |
| MKSNRQARHILGLDHKISNQRKIVTEGDKSSVVNNPTGRKRPAEK | 1.64 ± 0.16 h | 1.85 h | 1.81 ± 0.55 h | 1.25 ± 0.066 h | 0.873 h | 1.04 ± 0.075 h | 1.37 ± 0.39 h | 0.657 h | 1.08 h | 1.74 ± 0.51 h | 0.899 ± 0.2 h | 1.34 ± 0.98 h |
| MKSPAPSRPQKMALIPACIFLCFAALSVQAEETPVTPQPPDILLGPLFNDVQNAKLFPDQKTFADAVPNSDPLMILADYRMQQNQSGFDLRHFVNVNFTLPKEGEKYVPPEGQSLREHIDGLWPVLTRSTENTEKWDSLLPLPEPYVVPGGRFREVYYWDSYFTMLGLAESGHWDKVADMVANFAHEIDTYGHIPNGNRSYYLSRSQPPFFALMVELLAQHEGDAALKQYLPQMQKEYAYWMDGVENLQAGQQEKRVVKLQDGTLLNRYWDDRDTPRPESWVEDIATAKSNPNRPATEIYRDLRSAAASGWDFSSRWMDNPQQLNTLRTTSIVPVDLNSLMFKMEKILARASKAAGDNAMANQYETLANARQKGIEKYLWNDQQGWYADYDLKSHKVRNQLTAAALFPLYVNAAAKDRANKMATATKTHLLQPGGLNTTSVKSGQQWDAPNGWAPLQWVATEGLQNYGQKEVAMDISWHFLTNVQHTYDREKKLVEKYDVSTTGTGGGGGEYPLQDGFGWTNGVTLKMLDLICPKEQPCDNVPATRPTVKSATTQPSTKEAQPTP | 3.51 ± 0.67 h | 6.59 ± 0.25 h | 11.2 ± 0.94 h | 6.13 ± 0.28 h | – | 7.29 ± 0.5 h | 6.16 ± 0.95 h | 5.94 ± 0.87 h | 6.28 ± 0.098 h | 14.4 ± 0.85 h | – | 14.4 ± 1.6 h |
| MKSTSDLFNEIIPLGRLIHMVNQKKDRLLNEYLSPLDITAAQFKVLCSIRCAACITPVELKKVLSVDLGALTRMLDRLVCKGWVERLPNPNDKRGVLVKLTTGGAAICEQCHQLVGQDLHQELTKNLTADEVATLEYLLKKVLP | – | 5.68 ± 0.62 h | 11.7 ± 2.1 h | 4.66 ± 0.39 h | 6.71 h | > 8 h | – | 4.66 ± 0.12 h | 4.4 ± 0.066 h | 7.75 ± 0.37 h | 3.68 h | 10.8 h |
| MKSVFTISASLAISLMLCCTAQANDHKLLGAIAMPRNETNDLALKLPVCRIVKRIQLSADHGDLQLSGASVYFKAARSASQSLNIPSEIKEGQTTDWININSDNDNKRCVSKITFSGHTVNSSDMATLKIIGDD | – | 4.34 h | – | – | 3.9 h | – | – | 5.9 h | – | 13 h | – | 8.91 h |
| MKTDTPSLETPQAARLRRRQLIRQLLERDKTPLAILFMAAVVGTLVGLAAVAFDKGVAWLQNQRMGALVHTADNYPLLLTVAFLCSAVLAMFGYFLVRKYAPEAGGSGIPEIEGALEDQRPVRWWRVLPVKFFGGLGTLGGGMVLGREGPTVQIGGNIGRMVLDIFRLKGDEARHTLLATGAAAGLAAAFNAPLAGILFIIEEMRPQFRYTLISIKAVFIGVIMSTIMYRIFNHEVALIDVGKLSDAPLNTLWLYLILGIIFGIFGPIFNKWVLGMQDLLHRVHGGNITKWVLMGGAIGGLCGLLGFVAPATSGGGFNLIPIATAGNFSMGMLVFIFVARVITTLLCFSSGAPGGIFAPMLALGTVLGTAFGMVAVELFPQYHLEAGTFAIAGMGALLAASIRAPLTGIILVLEMTDNYQLILPMIITGLGATLLAQFTGGKPLYSAILARTLAKQEAEQLARSKAASASENT | – | 5.8 ± 0.28 h | 13.2 ± 3.7 h | 6.2 ± 0.78 h | 6.38 h | 6.54 ± 0.83 h | 6.03 h | 5.82 ± 0.66 h | 6.08 ± 0.083 h | 11.3 h | 6.1 ± 0.11 h | 11.3 ± 0.43 h |
| MKTERILGALYGQALGDAMGMPSELWPRSRVKAHFGWIDRFLPGPKENNAACYFNRAEFTDDTSMALCLADALLEREGKIDPDLIGRNILDWALRFDAFNKNVLGPTSKIALNAIRDGKPVAELENNGVTNGAAMRVSPLGCLLPARDVDSFIDDVALASSPTHKSDLAVAGAVVIAWAISRAIDGESWSAIVDSLPSIARHAQQKRITTFSASLAARLEIALKIVRNADGTESASEQLYQVVGAGTSTIESVPCAIALVELAQTDPNRCAVLCANLGGDTDTIGAMATAICGALHGVNAIDPALKAELDAVNQLDFNRYATALAKYRQQREAV | 2.89 ± 0.35 h | 5.04 ± 0.58 h | 9.45 ± 0.66 h | 4.09 ± 0.27 h | 3.33 ± 0.15 h | 3.21 ± 0.037 h | 3.64 ± 0.55 h | 3.4389 ± 0.00072 h | 3.36 ± 0.19 h | 4.91 ± 0.38 h | 5.45 ± 0.4 h | 10.4 ± 0.37 h |
